Reference: PMC9974095, “TP63 gain-of-function mutations cause premature ovarian insufficiency by inducing oocyte apoptosis” (The Journal of Clinical Investigation, 2023)
Where “and” joins values, the source holds several entries; their conditions need not be identical. Equal values may be shown once.

B1: mouse p63ΔTID (domain or fragment, UniProt O88898-1 1-609, looked up)
chain: MNFETSRCATLQYCPDPYIQRFIETPAHFSWKESYYRSAMSQSTQTSEFLSPEVFQHIWDFLEQPICSVQPIELNFVDEPSENGATNKIEISMDCIRMQDSDLSDPMWPQYTNLGLLNSMDQQIQNGSSSTSPYNTDHAQNSVTAPSPYAQPSSTFDALSPSPAIPSNTDYPGPHSFDVSFQQSSTAKSATWTYSTELKKLYCQIAKTCPIQIKVMTPPPQGAVIRAMPVYKKAEHVTEVVKRCPNHELSREFNEGQIAPPSHLIRVEGNSHAQYVEDPITGRQSVLVPYEPPQVGTEFTTVLYNFMCNSSCVGGMNRRPILIIVTLETRDGQVLGRRCFEARICACPGRDRKADEDSIRKQQVSDSAKNGDGTKRPFRQNTHGIQMTSIKKRRSPDDELLYLPVRGRETYEMLLKIKESLELMQYLPQHTIETYRQQQQQQHQHLLQKQTSMQSQSSYGNSSPPLNKMNSMNKLPSVSQLINPQQRNALTPTTMPEGMGANIPMMGTHMPMAGDMNGLSPTQALPPPLSMPSTSHCTPPPPYPTDCSIVSFLARLGCSSCLDYFTTQGLTTIYQIEHYSMDDLASLKIPEQFRHAIWKGILDHRQLHD
notes: mouse p63 (TAp63α) without the TID; the mouse allele of the same name carries c.1828_1829insGA (p.F610*, NM_001127259.1), a stop codon prior to the TID; also called mutant p63ΔTID
B2: TAp63α p.R594* (domain or fragment, human, UniProt Q9H3D4-1 1-593, looked up)
chain: MNFETSRCATLQYCPDPYIQRFVETPAHFSWKESYYRSTMSQSTQTNEFLSPEVFQHIWDFLEQPICSVQPIDLNFVDEPSEDGATNKIEISMDCIRMQDSDLSDPMWPQYTNLGLLNSMDQQIQNGSSSTSPYNTDHAQNSVTAPSPYAQPSSTFDALSPSPAIPSNTDYPGPHSFDVSFQQSSTAKSATWTYSTELKKLYCQIAKTCPIQIKVMTPPPQGAVIRAMPVYKKAEHVTEVVKRCPNHELSREFNEGQIAPPSHLIRVEGNSHAQYVEDPITGRQSVLVPYEPPQVGTEFTTVLYNFMCNSSCVGGMNRRPILIIVTLETRDGQVLGRRCFEARICACPGRDRKADEDSIRKQQVSDSTKNGDGTKRPFRQNTHGIQMTSIKKRRSPDDELLYLPVRGRETYEMLLKIKESLELMQYLPQHTIETYRQQQQQQHQHLLQKQTSIQSPSSYGNSSPPLNKMNSMNKLPSVSQLINPQQRNALTPTTIPDGMGANIPMMGTHMPMAGDMNGLSPTQALPPPLSMPSTSHCTPPPPYPTDCSIVSFLARLGCSSCLDYFTTQGLTTIYQIEHYSMDDLASLKIPEQF
notes: human TAp63α with the nonsense variant p.R594* (stop at codon 594, in the SAM domain; truncates the protein prior to the TID), numbered on NM_003722.5; Nonsense variant found in a patient with POI; lacks the TID; source: SAOS-2, transfected, MG132-treated, in lysate
B3: TAp63α (human TP63), wild type (natural protein, UniProt Q9H3D4-1 1-680, looked up)
chain: MNFETSRCATLQYCPDPYIQRFVETPAHFSWKESYYRSTMSQSTQTNEFLSPEVFQHIWDFLEQPICSVQPIDLNFVDEPSEDGATNKIEISMDCIRMQDSDLSDPMWPQYTNLGLLNSMDQQIQNGSSSTSPYNTDHAQNSVTAPSPYAQPSSTFDALSPSPAIPSNTDYPGPHSFDVSFQQSSTAKSATWTYSTELKKLYCQIAKTCPIQIKVMTPPPQGAVIRAMPVYKKAEHVTEVVKRCPNHELSREFNEGQIAPPSHLIRVEGNSHAQYVEDPITGRQSVLVPYEPPQVGTEFTTVLYNFMCNSSCVGGMNRRPILIIVTLETRDGQVLGRRCFEARICACPGRDRKADEDSIRKQQVSDSTKNGDGTKRPFRQNTHGIQMTSIKKRRSPDDELLYLPVRGRETYEMLLKIKESLELMQYLPQHTIETYRQQQQQQHQHLLQKQTSIQSPSSYGNSSPPLNKMNSMNKLPSVSQLINPQQRNALTPTTIPDGMGANIPMMGTHMPMAGDMNGLSPTQALPPPLSMPSTSHCTPPPPYPTDCSIVSFLARLGCSSCLDYFTTQGLTTIYQIEHYSMDDLASLKIPEQFRHAIWKGILDHRQLHEFSSPSHLLRTPSSASTVSVGSSETRGERVIDAVRFTLRQTISFPPRDEWNDFNFDMDARRNKQQRIKEEGE
notes: human p63, isoform TAp63α; variants are numbered on NM_003722.5; also called WT TAp63α; source: SAOS-2, transfected (pcDNA3.1-TP63), MG132-treated, in lysate
B4: TAp63α p.S285N (natural protein, human, UniProt Q9H3D4-1 1-680, looked up)
chain: MNFETSRCATLQYCPDPYIQRFVETPAHFSWKESYYRSTMSQSTQTNEFLSPEVFQHIWDFLEQPICSVQPIDLNFVDEPSEDGATNKIEISMDCIRMQDSDLSDPMWPQYTNLGLLNSMDQQIQNGSSSTSPYNTDHAQNSVTAPSPYAQPSSTFDALSPSPAIPSNTDYPGPHSFDVSFQQSSTAKSATWTYSTELKKLYCQIAKTCPIQIKVMTPPPQGAVIRAMPVYKKAEHVTEVVKRCPNHELSREFNEGQIAPPSHLIRVEGNSHAQYVEDPITGRQNVLVPYEPPQVGTEFTTVLYNFMCNSSCVGGMNRRPILIIVTLETRDGQVLGRRCFEARICACPGRDRKADEDSIRKQQVSDSTKNGDGTKRPFRQNTHGIQMTSIKKRRSPDDELLYLPVRGRETYEMLLKIKESLELMQYLPQHTIETYRQQQQQQHQHLLQKQTSIQSPSSYGNSSPPLNKMNSMNKLPSVSQLINPQQRNALTPTTIPDGMGANIPMMGTHMPMAGDMNGLSPTQALPPPLSMPSTSHCTPPPPYPTDCSIVSFLARLGCSSCLDYFTTQGLTTIYQIEHYSMDDLASLKIPEQFRHAIWKGILDHRQLHEFSSPSHLLRTPSSASTVSVGSSETRGERVIDAVRFTLRQTISFPPRDEWNDFNFDMDARRNKQQRIKEEGE
notes: made from pcDNA3.1-TP63 by site-directed mutagenesis; Variant found in a patient with POI; source: SAOS-2, transfected, MG132-treated, in lysate
B5: TAp63α p.L646P (natural protein, human, UniProt Q9H3D4-1 1-680, looked up)
chain: MNFETSRCATLQYCPDPYIQRFVETPAHFSWKESYYRSTMSQSTQTNEFLSPEVFQHIWDFLEQPICSVQPIDLNFVDEPSEDGATNKIEISMDCIRMQDSDLSDPMWPQYTNLGLLNSMDQQIQNGSSSTSPYNTDHAQNSVTAPSPYAQPSSTFDALSPSPAIPSNTDYPGPHSFDVSFQQSSTAKSATWTYSTELKKLYCQIAKTCPIQIKVMTPPPQGAVIRAMPVYKKAEHVTEVVKRCPNHELSREFNEGQIAPPSHLIRVEGNSHAQYVEDPITGRQSVLVPYEPPQVGTEFTTVLYNFMCNSSCVGGMNRRPILIIVTLETRDGQVLGRRCFEARICACPGRDRKADEDSIRKQQVSDSTKNGDGTKRPFRQNTHGIQMTSIKKRRSPDDELLYLPVRGRETYEMLLKIKESLELMQYLPQHTIETYRQQQQQQHQHLLQKQTSIQSPSSYGNSSPPLNKMNSMNKLPSVSQLINPQQRNALTPTTIPDGMGANIPMMGTHMPMAGDMNGLSPTQALPPPLSMPSTSHCTPPPPYPTDCSIVSFLARLGCSSCLDYFTTQGLTTIYQIEHYSMDDLASLKIPEQFRHAIWKGILDHRQLHEFSSPSHLLRTPSSASTVSVGSSETRGERVIDAVRFTPRQTISFPPRDEWNDFNFDMDARRNKQQRIKEEGE
notes: Variant found in a patient with POI; source: SAOS-2, transfected, MG132-treated, in lysate
B6: TAp63α p.R655Q (natural protein, human, UniProt Q9H3D4-1 1-680, looked up)
chain: MNFETSRCATLQYCPDPYIQRFVETPAHFSWKESYYRSTMSQSTQTNEFLSPEVFQHIWDFLEQPICSVQPIDLNFVDEPSEDGATNKIEISMDCIRMQDSDLSDPMWPQYTNLGLLNSMDQQIQNGSSSTSPYNTDHAQNSVTAPSPYAQPSSTFDALSPSPAIPSNTDYPGPHSFDVSFQQSSTAKSATWTYSTELKKLYCQIAKTCPIQIKVMTPPPQGAVIRAMPVYKKAEHVTEVVKRCPNHELSREFNEGQIAPPSHLIRVEGNSHAQYVEDPITGRQSVLVPYEPPQVGTEFTTVLYNFMCNSSCVGGMNRRPILIIVTLETRDGQVLGRRCFEARICACPGRDRKADEDSIRKQQVSDSTKNGDGTKRPFRQNTHGIQMTSIKKRRSPDDELLYLPVRGRETYEMLLKIKESLELMQYLPQHTIETYRQQQQQQHQHLLQKQTSIQSPSSYGNSSPPLNKMNSMNKLPSVSQLINPQQRNALTPTTIPDGMGANIPMMGTHMPMAGDMNGLSPTQALPPPLSMPSTSHCTPPPPYPTDCSIVSFLARLGCSSCLDYFTTQGLTTIYQIEHYSMDDLASLKIPEQFRHAIWKGILDHRQLHEFSSPSHLLRTPSSASTVSVGSSETRGERVIDAVRFTLRQTISFPPQDEWNDFNFDMDARRNKQQRIKEEGE
notes: as for B5
B7: TAp63α p.R643Q (natural protein, human, UniProt Q9H3D4-1 1-680, looked up)
chain: MNFETSRCATLQYCPDPYIQRFVETPAHFSWKESYYRSTMSQSTQTNEFLSPEVFQHIWDFLEQPICSVQPIDLNFVDEPSEDGATNKIEISMDCIRMQDSDLSDPMWPQYTNLGLLNSMDQQIQNGSSSTSPYNTDHAQNSVTAPSPYAQPSSTFDALSPSPAIPSNTDYPGPHSFDVSFQQSSTAKSATWTYSTELKKLYCQIAKTCPIQIKVMTPPPQGAVIRAMPVYKKAEHVTEVVKRCPNHELSREFNEGQIAPPSHLIRVEGNSHAQYVEDPITGRQSVLVPYEPPQVGTEFTTVLYNFMCNSSCVGGMNRRPILIIVTLETRDGQVLGRRCFEARICACPGRDRKADEDSIRKQQVSDSTKNGDGTKRPFRQNTHGIQMTSIKKRRSPDDELLYLPVRGRETYEMLLKIKESLELMQYLPQHTIETYRQQQQQQHQHLLQKQTSIQSPSSYGNSSPPLNKMNSMNKLPSVSQLINPQQRNALTPTTIPDGMGANIPMMGTHMPMAGDMNGLSPTQALPPPLSMPSTSHCTPPPPYPTDCSIVSFLARLGCSSCLDYFTTQGLTTIYQIEHYSMDDLASLKIPEQFRHAIWKGILDHRQLHEFSSPSHLLRTPSSASTVSVGSSETRGERVIDAVQFTLRQTISFPPRDEWNDFNFDMDARRNKQQRIKEEGE
notes: as for B5
B8: TAp63α p.T567I (natural protein, human, UniProt Q9H3D4-1 1-680, looked up)
chain: MNFETSRCATLQYCPDPYIQRFVETPAHFSWKESYYRSTMSQSTQTNEFLSPEVFQHIWDFLEQPICSVQPIDLNFVDEPSEDGATNKIEISMDCIRMQDSDLSDPMWPQYTNLGLLNSMDQQIQNGSSSTSPYNTDHAQNSVTAPSPYAQPSSTFDALSPSPAIPSNTDYPGPHSFDVSFQQSSTAKSATWTYSTELKKLYCQIAKTCPIQIKVMTPPPQGAVIRAMPVYKKAEHVTEVVKRCPNHELSREFNEGQIAPPSHLIRVEGNSHAQYVEDPITGRQSVLVPYEPPQVGTEFTTVLYNFMCNSSCVGGMNRRPILIIVTLETRDGQVLGRRCFEARICACPGRDRKADEDSIRKQQVSDSTKNGDGTKRPFRQNTHGIQMTSIKKRRSPDDELLYLPVRGRETYEMLLKIKESLELMQYLPQHTIETYRQQQQQQHQHLLQKQTSIQSPSSYGNSSPPLNKMNSMNKLPSVSQLINPQQRNALTPTTIPDGMGANIPMMGTHMPMAGDMNGLSPTQALPPPLSMPSTSHCTPPPPYPTDCSIVSFLARLGCSSCLDYFTIQGLTTIYQIEHYSMDDLASLKIPEQFRHAIWKGILDHRQLHEFSSPSHLLRTPSSASTVSVGSSETRGERVIDAVRFTLRQTISFPPRDEWNDFNFDMDARRNKQQRIKEEGE
notes: human TAp63α with the patient variant p.T567I (SAM domain), numbered on NM_003722.5; made from pcDNA3.1-TP63 by site-directed mutagenesis; Variant found in a patient with POI; source: SAOS-2, transfected, MG132-treated, in lysate
B9: TAp63α p.T538A (natural protein, human, UniProt Q9H3D4-1 1-680, looked up)
chain: MNFETSRCATLQYCPDPYIQRFVETPAHFSWKESYYRSTMSQSTQTNEFLSPEVFQHIWDFLEQPICSVQPIDLNFVDEPSEDGATNKIEISMDCIRMQDSDLSDPMWPQYTNLGLLNSMDQQIQNGSSSTSPYNTDHAQNSVTAPSPYAQPSSTFDALSPSPAIPSNTDYPGPHSFDVSFQQSSTAKSATWTYSTELKKLYCQIAKTCPIQIKVMTPPPQGAVIRAMPVYKKAEHVTEVVKRCPNHELSREFNEGQIAPPSHLIRVEGNSHAQYVEDPITGRQSVLVPYEPPQVGTEFTTVLYNFMCNSSCVGGMNRRPILIIVTLETRDGQVLGRRCFEARICACPGRDRKADEDSIRKQQVSDSTKNGDGTKRPFRQNTHGIQMTSIKKRRSPDDELLYLPVRGRETYEMLLKIKESLELMQYLPQHTIETYRQQQQQQHQHLLQKQTSIQSPSSYGNSSPPLNKMNSMNKLPSVSQLINPQQRNALTPTTIPDGMGANIPMMGTHMPMAGDMNGLSPTQALPPPLSMPSTSHCAPPPPYPTDCSIVSFLARLGCSSCLDYFTTQGLTTIYQIEHYSMDDLASLKIPEQFRHAIWKGILDHRQLHEFSSPSHLLRTPSSASTVSVGSSETRGERVIDAVRFTLRQTISFPPRDEWNDFNFDMDARRNKQQRIKEEGE
notes: human TAp63α with the patient variant p.T538A, numbered on NM_003722.5; made from pcDNA3.1-TP63 by site-directed mutagenesis; Variant found in a patient with POI; source: SAOS-2, transfected, MG132-treated, in lysate

Molecular target: the molecule itself
Experiment: native gel or EMSA; BN-PAGE (NativePAGE 3%-12% Bis-Tris) of lysates of transfected SAOS-2 cells treated with 10 uM MG132 for 12 h; blot with anti-p63

| Protein | stoichiometry N |
| --- | --- |
| B1 | 4 |
| B2 | 4 |
| B3 | 2 |
| B4 | 2 |
| B5 | 4 |
| B6 | 4 and 2 |
| B7 | 4 |
| B8 | 2 |
| B9 | 2 |
